Test [1] concerns the target T1, rHuman IGF-1 sR (IGF-1 sR), CF (R&D Systems Cat#391-GR) (human, UniProt P08069 31-932).
T1 construct: Bought soluble receptor; also called insulin-like growth factor-1 soluble receptor; IGF-R1
Nature of the test: MSD ECL multi-spot assay, antigen spotted on plate, Fab 0.36 uM; blank spot 928.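 Also: blank spot per well as comparator with Hit at signal to blank ratio of 4 or more.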

Test [2] deals with T2, rHuman Erythropoietin R/Fc Chimera, CF (R&D Systems Cat#963-ER) (human, UniProt P19235 25-250).
T2 construct: Bought protein; also called EPOR; EPO R/Fc; Fc part of the bought chimera not given
T2 sequence: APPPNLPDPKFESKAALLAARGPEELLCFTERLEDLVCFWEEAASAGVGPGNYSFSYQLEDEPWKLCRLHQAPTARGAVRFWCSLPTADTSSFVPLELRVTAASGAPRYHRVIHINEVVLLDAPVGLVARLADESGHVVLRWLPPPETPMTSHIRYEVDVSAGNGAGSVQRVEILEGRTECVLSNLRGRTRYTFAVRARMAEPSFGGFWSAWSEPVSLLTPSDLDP
The test is described as above.

Test [3] deals with T3, rHuman EGF R/Fc Chimera, CF (R&D Systems Cat#344-ER) (human, UniProt P00533 25-645).
T3 construct: Bought protein; also called epidermal growth factor receptor; Fc part of the bought chimera not given
Described as above.

The target in test [4] is T4, Recombinant Human DLL4 (R&D Systems Cat#1506-D4/CF) (human, UniProt Q9NR61 27-524).
T4 construct: Bought protein; also called delta-like protein 4; rHuman DLL4
The test is described as above.

In test [5] the target is T5, rHuman ErbB2/Fc Chimera, CF (R&D Systems Cat#1129-ER) (human, UniProt P04626 23-652).
T5 construct: Bought protein; also called HER2/neu; human epidermal growth factor 2 receptor; Fc part of the bought chimera not given
Described as above.

Test [6] deals with T6, rHuman P-Cadherin/Fc Chimera, CF (R&D Systems Cat#861-PC) (human, UniProt P22223 108-654).
T6 construct: Bought protein; also called CDH3; Fc part of the bought chimera not given
Described as above.

The target in test [7] is T7, rHuman HGF R/c-MET/Fc Chimera, CF (R&D Systems Cat#358-MT/CF) (human, UniProt P08581 25-932).
T7 construct: Bought protein; also called HGF R/Fc; hepatocyte growth factor receptor; Fc part of the bought chimera not given
Described as above.

In test [8] the target is T8, rHuman CD44/Fc Chimera, CF (R&D Systems Cat#3660-CD) (human, UniProt P16070 21-220).
T8 construct: Bought protein; Fc part of the bought chimera not given
Described as above.

The target in test [9] is T9, rHuman Notch-1/Fc Chimera, CF (R&D Systems Cat#3647-TK) (human, UniProt P46531 19-526).
T9 construct: Bought protein; Fc part of the bought chimera not given
The description is as above.

Test [10] deals with T1, rHuman IGF-1 sR (IGF-1 sR), CF (R&D …). Nature of the test: MSD ECL multi-spot assay, antigen spotted on plate, Fab 0.65 uM; blank spot 441.
Test [11] has as its target T3, rHuman EGF R/Fc Chimera, CF (R&D …). The test is described as above.
Test [12] has as its target T4, Recombinant Human DLL4 (R&D Systems …). The description is as above.
Test [13] addresses T5, rHuman ErbB2/Fc Chimera, CF (R&D …). The test is described as above.
Test [14] has as its target T6, rHuman P-Cadherin/Fc Chimera, CF (R&D …). The description is as above.
Test [15] has as its target T7, rHuman HGF R/c-MET/Fc Chimera, CF (R&D …). Described as above.
For test [16], the target named is T8, rHuman CD44/Fc Chimera, CF (R&D Systems …). The description is as above.
Test [17] addresses T1, rHuman IGF-1 sR (IGF-1 sR), CF (R&D …). Kind of test: MSD ECL multi-spot assay, antigen spotted on plate, Fab 0.03 uM; blank spot 373.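 Also: blank spot per well as comparator with Hit at signal to blank ratio of 4 or more.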
The target in test [18] is T2, rHuman Erythropoietin R/Fc Chimera, CF …. The test is described as above.
The target in test [19] is T3, rHuman EGF R/Fc Chimera, CF (R&D …). The description is as above.
Test [20] addresses T4, Recombinant Human DLL4 (R&D Systems …). Described as above.
For test [21], the target named is T5, rHuman ErbB2/Fc Chimera, CF (R&D …). The description is as above.
The target of test [22] is T6, rHuman P-Cadherin/Fc Chimera, CF (R&D …). The description is as above.
For test [23], the target named is T7, rHuman HGF R/c-MET/Fc Chimera, CF (R&D …). Described as above.
Test [24] deals with T8, rHuman CD44/Fc Chimera, CF (R&D Systems …). The test is described as above.
In test [25] the target is T9, rHuman Notch-1/Fc Chimera, CF (R&D …). Described as above.
The target in test [26] is T1, rHuman IGF-1 sR (IGF-1 sR), CF (R&D …). Nature of the test: MSD ECL multi-spot assay, antigen spotted on plate, Fab 0.25 uM; blank spot 3693.
Test [27] concerns the target T2, rHuman Erythropoietin R/Fc Chimera, CF …. Described as above.
Test [28] addresses T3, rHuman EGF R/Fc Chimera, CF (R&D …). Described as above.
Test [29] has as its target T4, Recombinant Human DLL4 (R&D Systems …). The description is as above.
For test [30], the target named is T6, rHuman P-Cadherin/Fc Chimera, CF (R&D …). The description is as above.

B1: Fab VH1-46_IGHD7-27*01_IGHJ2*01 & A27_IGKJ1*01 (Fab, V domains shown)
VH: QVQLVQSGAEVKKPGASVKVSCKASGYTFTSYYMHWVRQAPGQGLEWMGIINPSGGSTSYAQKFQGRVTMTRDTSTSTVYMELSSLRSEDTAVYYCARANWGYWYFDLWGRGTLVTVSS
VL: not shown
notes: Fab from E. coli; VH joined to the CH1 (Flag and His tags) of Plasmid A, VL to the kappa CL of Plasmid C
With B1, the ECL signal was 1080 in test [1]; 2430 in test [2]; 1400 in test [3]; 9080 in [4]; 1470 in test [5]; 1800 in test [6]. The figures for the ECL signal in test [7], in test [8] and in test [9] were 1220, 1540 and 1920, respectively.

B2: Fab VH1-69_IGHD1-1*01_IGHJ6*01 & A17_IGKJ1*01 (Fab, V domains shown)
VH: QVQLVQSGAEVKKPGSSVKVSCKASGGTFSSYAISWVRQAPGQGLEWMGGIIPIFGTANYAQKFQGRVTITADKSTSTAYMELSSLRSEDTAVYYCARGYNWNDDYYYYYGMDVWGQGTTVTVSS
VL: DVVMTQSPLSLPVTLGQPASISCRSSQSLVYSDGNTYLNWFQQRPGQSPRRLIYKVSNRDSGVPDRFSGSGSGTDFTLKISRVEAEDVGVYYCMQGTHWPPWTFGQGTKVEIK
notes: as for B1
Consider B2, for which the ECL signal in [10] worked out at 656; in test [11], 662; in [12], 849; in test [13], 2940; in test [14], 695; in [15] it was 437. In [16], the ECL signal was determined as 797.

B3: Fab VH2-5_IGHD7-27*01_IGHJ2*01 & L2_IGKJ1*01 (Fab, V domains shown)
VH: QITLKESGPTLVKPTQTLTLTCTFSGFSLSTSGVGVGWIRQPPGKALEWLALIYWNDDKRYSPSLKSRLTITKDTSKNQVVLTMTNMDPVDTATYYCAHRPNWGYWYFDLWGRGTLVTVSS
VL: not shown
For B3, the ECL signal in test [17] was determined as 344; in test [18] it was 492; in test [19] it was 381; in [20], 476; in test [21], 2560; in [22], 352. For the same molecule, the results for the ECL signal in test [23], in test [24] and in [25] were 311, 421 and 563, respectively.

B4: Fab VH1-46_IGHD2-15*01_IGHJ2*01 & L2_IGKJ1*01 (Fab, V domains shown)
VH: QVQLVQSGAEVKKPGASVKVSCKASGYTFTSYYMHWVRQAPGQGLEWMGIINPSGGSTSYAQKFQGRVTMTRDTSTSTVYMELSSLRSEDTAVYYCAREGYCSGGSCYSYWYFDLWGRGTLVTVSS
VL: not shown
With B4, the ECL signal in test [26] worked out at 4930; in [27] it was 30100; in test [28], 88000; in test [29] it was 14700; in test [30], 16100.

The values are drawn from patent publication US20120058906A1 (published 2012).
